Measurements from patent US11833164B2, “Methods of treating Fabry disease in patients having a mutation in the GLA gene” (Amicus Therapeutics, Inc., priority 2019, dated 2023).
Substitutions are numbered along the chain they refer to. In names and notes the source's numbering stands.

B1: L344R (protein)
chain: MQLRNPELHLGCALALRFLALVSWDIPGARALDNGLARTPTMGWLHWERFMCNLDCQEEPDSCISEKLFMEMAELMVSEGWKDAGYEYLCIDDCWMAPQRDSEGRLQADPQRFPHGIRQLANYVHSKGLKLGIYADVGNKTCAGFPGSFGYYDIDAQTFADWGVDLLKFDGCYCDSLENLADGYKHMSLALNRTGRSIVYSCEWPLYMWPFQKPNYTEIRQYCNHWRNFADIDDSWKSIKSILDWTSFNQERIVDVAGPGGWNDPDMLVIGNFGLSWNQQVTQMALWAIMAAPLFMSNDLRHISPQAKALLQDKDVIAINQDPLGKQGYQLRQGDNFEVWERPRSGLAWAVAMINRQEIGGPRSYTIAVASLGKGVACNPACFITQLLPVKRKLGFYEWTSRLRSHINPTGTVLLQLENTMQMSLKDLL
B2: A350T (protein)
chain: B1 chain with R344L, A350T
B3: M353K (protein)
chain: B1 chain with R344L, M353K
B4: W349C (protein)
chain: B1 chain with R344L, W349C
B5: A352T (protein)
chain: B1 chain with R344L, A352T
B6: A350G (protein)
chain: B1 chain with R344L, A350G
B7: G346C (protein)
chain: B1 chain with R344L, G346C
B8: L344V (protein)
chain: B1 chain with R344V
B9: A350V (protein)
chain: B1 chain with R344L, A350V
B10: M353L (protein)
chain: B1 chain with R344L, M353L
B11: A348D (protein)
chain: B1 chain with R344L, A348D
B12: A352S (protein)
chain: B1 chain with R344L, A352S
B13: A350S (protein)
chain: B1 chain with R344L, A350S
B14: G346D (protein)
chain: B1 chain with R344L, G346D
B15: G346V (protein)
chain: B1 chain with R344L, G346V
B16: V351A (protein)
chain: B1 chain with R344L, V351A
B17: V351E (protein)
chain: B1 chain with R344L, V351E
B18: L347I (protein)
chain: B1 chain with R344L, L347I
B19: M353T (protein)
chain: B1 chain with R344L, M353T
B20: G346A (protein)
chain: B1 chain with R344L, G346A
B21: W349L (protein)
chain: B1 chain with R344L, W349L

tested on: mutant form of α-Gal A expressed in HEK-293 cells; experiment: HEK assay (GLP HEK / Migalastat Amenability Assay): α-Gal A activity in lysates of transiently transfected HEK-293 cells incubated with or without 10 μM migalastat; assay type: cell-based, human; conditions: 10 μM migalastat versus baseline
Outline: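 Activity reported as 4-MU released (nmol/mg/hr), mean±SEM, from lysates of transiently transfected HEK-293 cells expressing mutant α-Gal A, cultured with or without 10 μM migalastat.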

Point of comparison: B9, “Absolute increase (% WT)” value 22.3 % WT. Against it:
- B1 — lower, 15.3 % WT
- B2 — lower, 14.4 % WT
- B3 — lower, 13.0 % WT
- B4 — lower, 12.3 % WT
- B5 — higher, 31.0 % WT
- B6 — lower, 9.5 % WT
- B7 — lower, 9.7 % WT
- B8 — lower, 16.8 % WT
- B10 — lower, 14.6 % WT
- B11 — lower, 8.4 % WT
- B12 — lower, 12.1 % WT
- B13 — lower, 17.6 % WT
- B14 — higher, 35.8 % WT
- B15 — higher, 22.7 % WT
- B16 — lower, 14.2 % WT
- B17 — lower, 7.2 % WT
- B18 — lower, 17.4 % WT
- B19 — lower, 19.2 % WT
- B20 — lower, 22.0 % WT
- B21 — lower, 11.8 % WT

Point of comparison: B14, Relative increase 1.5. Against it:
- B1 — higher, 2.3
- B2 — lower, 1.3
- B3 — lower, 1.4
- B4 — lower, 1.3
- B5 — higher, 1.9
- B6 — lower, 1.2
- B7 — lower, 1.3
- B8 — lower, 1.4
- B9 — higher, 1.8
- B10 — lower, 1.2
- B11 — lower, 1.2
- B12 — lower, 1.2
- B13 — lower, 1.3
- B15 — higher, 1.8
- B16 — lower, 1.3
- B17 — higher, 1.7
- B18 — lower, 1.3
- B19 — lower, 1.4
- B20 — lower, 1.4
- B21 — lower, 1.3

same assay, conditions: absence of migalastat; percentage of baseline wild-type α-Gal A activity; mean ± SEM

Point of comparison: B15, “Baseline α-Gal A activity (% WT)” value 28.8 ± 2.4 % WT. Against it:
- B1 — lower, 10.9 ± 1.4 % WT
- B2 — higher, 47.4 ± 3.7 % WT
- B3 — within error, 30.3 ± 1.8 % WT
- B4 — higher, 41.5 ± 2.6 % WT
- B5 — higher, 37.2 ± 2.1 % WT
- B6 — higher, 41 ± 0.9 % WT
- B7 — higher, 39.5 ± 1.9 % WT
- B8 — higher, 40.6 ± 3.2 % WT
- B9 — within error, 27.9 ± 0.9 % WT
- B10 — higher, 66.6 ± 2.7 % WT
- B11 — higher, 41.6 ± 1.5 % WT
- B12 — higher, 52.8 ± 3.7 % WT
- B13 — higher, 62.9 ± 4.2 % WT
- B14 — higher, 67.5 ± 6.4 % WT
- B16 — higher, 56.9 ± 4.7 % WT
- B17 — lower, 10.5 ± 0.5 % WT
- B18 — higher, 65 ± 3.8 % WT
- B19 — higher, 46.4 ± 2.8 % WT
- B20 — higher, 58.3 ± 3.3 % WT
- B21 — higher, 35 ± 1.6 % WT

same assay, conditions: lysates of HEK-293 cells transiently transfected with the mutant form, incubated 5 days in absence of migalastat; mean ± SEM

Point of comparison: B2, “Baseline α-Gal A activity” value 20227 ± 1499 nmol/mg/h. Against it:
- B1 — lower, 4983 ± 848 nmol/mg/h
- B3 — lower, 13638 ± 804 nmol/mg/h
- B4 — within error, 17800 ± 1182 nmol/mg/h
- B5 — lower, 15803 ± 777 nmol/mg/h
- B6 — within error, 21459 ± 695 nmol/mg/h
- B7 — within error, 18258 ± 1054 nmol/mg/h
- B8 — lower, 13586 ± 1026 nmol/mg/h
- B9 — lower, 12786 ± 654 nmol/mg/h
- B10 — higher, 30347 ± 1572 nmol/mg/h
- B11 — within error, 21682 ± 817 nmol/mg/h
- B12 — within error, 23476 ± 1901 nmol/mg/h
- B13 — higher, 26493 ± 1291 nmol/mg/h
- B14 — higher, 31327 ± 3822 nmol/mg/h
- B15 — lower, 11683 ± 1406 nmol/mg/h
- B16 — higher, 24009 ± 1662 nmol/mg/h
- B17 — lower, 4760 ± 281 nmol/mg/h
- B18 — higher, 26815 ± 2533 nmol/mg/h
- B19 — lower, 15631 ± 1026 nmol/mg/h
- B20 — higher, 23263 ± 1479 nmol/mg/h
- B21 — within error, 18128 ± 742 nmol/mg/h

same assay, conditions: lysates of HEK-293 cells transiently transfected with the mutant form, incubated 5 days with 10 μM migalastat; mean ± SEM

Point of comparison: B19, “10 μM migalastat α-Gal A activity” value 21953 ± 937 nmol/mg/h. Against it:
- B1 — lower, 11592 ± 1593 nmol/mg/h
- B2 — higher, 26484 ± 1189 nmol/mg/h
- B3 — lower, 19335 ± 946 nmol/mg/h
- B4 — within error, 23210 ± 1299 nmol/mg/h
- B5 — higher, 29351 ± 1532 nmol/mg/h
- B6 — higher, 26360 ± 1002 nmol/mg/h
- B7 — within error, 22856 ± 1772 nmol/mg/h
- B8 — lower, 19262 ± 903 nmol/mg/h
- B9 — within error, 22855 ± 1012 nmol/mg/h
- B10 — higher, 36987 ± 1768 nmol/mg/h
- B11 — higher, 26025 ± 1129 nmol/mg/h
- B12 — higher, 28397 ± 1310 nmol/mg/h
- B13 — higher, 34474 ± 1484 nmol/mg/h
- B14 — higher, 46560 ± 3904 nmol/mg/h
- B15 — within error, 20902 ± 2356 nmol/mg/h
- B16 — higher, 30218 ± 1531 nmol/mg/h
- B17 — lower, 7910 ± 348 nmol/mg/h
- B18 — higher, 33517 ± 2802 nmol/mg/h
- B20 — higher, 31948 ± 1306 nmol/mg/h
- B21 — within error, 24184 ± 1517 nmol/mg/h

same assay, conditions: with 10 μM migalastat, 5 days; percentage of baseline wild-type α-Gal A activity; mean ± SEM

Point of comparison: B15, “10 μM migalastat α-Gal A activity (% WT)” value 51.4 ± 3.9 % WT. Against it:
- B1 — lower, 26.2 ± 2.6 % WT
- B2 — higher, 61.7 ± 2.7 % WT
- B3 — lower, 43.4 ± 2.6 % WT
- B4 — within error, 53.7 ± 2.5 % WT
- B5 — higher, 68.2 ± 3.2 % WT
- B6 — within error, 50.5 ± 1.7 % WT
- B7 — within error, 49.2 ± 2.9 % WT
- B8 — within error, 57.5 ± 2.5 % WT
- B9 — within error, 50.2 ± 1.6 % WT
- B10 — higher, 81.2 ± 2.7 % WT
- B11 — within error, 50 ± 2.2 % WT
- B12 — higher, 64.9 ± 2.5 % WT
- B13 — higher, 80.5 ± 3.6 % WT
- B14 — higher, 103.3 ± 6 % WT
- B16 — higher, 71.1 ± 4.1 % WT
- B17 — lower, 17.7 ± 1 % WT
- B18 — higher, 82.4 ± 5 % WT
- B19 — higher, 65.6 ± 3 % WT
- B20 — higher, 80.4 ± 2.8 % WT
- B21 — within error, 46.8 ± 3.2 % WT
